Measurements taken from the supplement of paper PMC9233669.
Fewer inactive variants are shown than the library holds.

Legend:
biotinyl-Met-oxazolone = test: self-aminoacylation, catalytic enhancement (BMO) (fold over background); higher = more active; k-Seq, kA / k0A0; sequences stand for … in GGGAAUGGAUCCACAUCUACGAAUUC…UUCACUGCAGACUUGACGAAGCUG
Method in brief: (§1)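 The uncatalyzed rate is the low-activity peak of a bimodal Gaussian fit, and catalytic enhancement is median kA divided by it. The kA values came from pseudo-first-order fits, with 1000 bootstraps, of per-sequence fraction reacted measured by streptavidin capture, triplicate qPCR and Illumina sequencing. Mutagenized RNA pools with a 21-nt variable region (0.43 μM) were reacted with each biotinyl-aminoacyl-oxazolone at 2–1250 μM in 50 μL HEPES/NaCl/KCl/MgCl2/CaCl2 buffer with 5% acetonitrile, pH 6.9–7.0, for 90 minutes at room temperature.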

biotinyl-Val-oxazolone = test: self-aminoacylation, catalytic enhancement (BVO) (fold over background); higher = more active; k-Seq, kA / k0A0; sequences stand for … in GGGAAUGGAUCCACAUCUACGAAUUC…UUCACUGCAGACUUGACGAAGCUG
Method in brief: as §1

biotinyl-Ile-oxazolone = test: self-aminoacylation, catalytic enhancement (BIO) (fold over background); higher = more active; k-Seq, kA / k0A0; sequences stand for … in GGGAAUGGAUCCACAUCUACGAAUUC…UUCACUGCAGACUUGACGAAGCUG
Method in brief: as §1

biotinyl-Phe-oxazolone = test: self-aminoacylation, catalytic enhancement (BFO) (fold over background); higher = more active; k-Seq, kA / k0A0; sequences stand for … in GGGAAUGGAUCCACAUCUACGAAUUC…UUCACUGCAGACUUGACGAAGCUG
Method in brief: as §1

biotinyl-Leu-oxazolone = test: self-aminoacylation, catalytic enhancement (BLO) (fold over background); higher = more active; k-Seq, kA / k0A0; sequences stand for … in GGGAAUGGAUCCACAUCUACGAAUUC…UUCACUGCAGACUUGACGAAGCUG
Method in brief: as §1

biotinyl-Trp-oxazolone = test: self-aminoacylation, catalytic enhancement (BWO) (fold over background); higher = more active; k-Seq, kA / k0A0; sequences stand for … in GGGAAUGGAUCCACAUCUACGAAUUC…UUCACUGCAGACUUGACGAAGCUG
Method in brief: as §1

Sequence	self-aminoacylation (biotinyl-Met-oxazolone)	self-aminoacylation (biotinyl-Val-oxazolone)	self-aminoacylation (biotinyl-Ile-oxazolone)	self-aminoacylation (biotinyl-Phe-oxazolone)	self-aminoacylation (biotinyl-Leu-oxazolone)	self-aminoacylation (biotinyl-Trp-oxazolone)
AAGUGUGCUGAUAGUCGCAAG [Fam3.1 aminoacylation ribozyme variant]	1.74	1.24	1.53	2.85	1.42	1.38
AAGUUAGCUAAUGGUCGCAAG [Fam3.1 aminoacylation ribozyme variant]	1.3	1.08	1.22	1.77	1.17	1.55
AAGUUAGCUAUUAGUCGCAAG [Fam3.1 aminoacylation ribozyme variant]	1.34	1.6	1.99	2.06	1.82	1.74
AAGUUCGCUAAUAGUCACAAG [Fam3.1 aminoacylation ribozyme variant]	1.56	1.25	1.59	3.01	1.6	1.64
AAGUUCGCUAAUAGUCGCAUG [Fam3.1 aminoacylation ribozyme variant]	2.27	2.37	2.16	8.49	2.88	3.05
AAGUUGGCUAAUAAUCGCAAG [Fam3.1 aminoacylation ribozyme variant]	1.29	1.67	1.72	2.15	1.34	2.04
AAGUUGGCUAAUAGUCGCAAC [Fam3.1 aminoacylation ribozyme variant]	1.31	1.4	1.75	2.17	1.42	1.93
AAGUUGGCUAAUAGUCGCAAU [Fam3.1 aminoacylation ribozyme variant]	1.32	1.7	2.15	2.72	1.71	2.93
AAGUUGGCUAAUAGUCGCACG [Fam3.1 aminoacylation ribozyme variant]	1.61	1.63	1.35	2.62	1.81	2.11
AAGUUGGCUAAUAGUCGGAAG [Fam3.1 aminoacylation ribozyme variant]	1.22	1.48	1.47	2.31	1.1	1.15
AAGUUGGCUAAUAGUUGCAAG [Fam3.1 aminoacylation ribozyme variant]	1.53	1.29	1.39	1.86	1.09	1.92
AAGUUGGCUAAUAUUCGCAAG [Fam3.1 aminoacylation ribozyme variant]	1.85	2.09	2.32	2.07	2.11	3.02
AAGUUUACUAAGAGUCGCAAG [Fam3.1 aminoacylation ribozyme variant]	1.37	1.36	1.47	1.93	1.36	1.69
AAGUUUACUAAUACUCGCAAG [Fam3.1 aminoacylation ribozyme variant]	1.18	1.18	1.26	1.55	1.06	1.37
AAGUUUACUAAUAGUCGCAAU [Fam3.1 aminoacylation ribozyme variant]	1.48	1.6	1.86	3.51	1.42	1.99
AAGUUUACUAAUAGUCGCGAG [Fam3.1 aminoacylation ribozyme variant]	1.59	1.22	1.83	2.41	1.91	1.54
AAGUUUACUAAUAUUCGCAAG [Fam3.1 aminoacylation ribozyme variant]	1.31	1.66	1.67	2.42	1.44	2.23
AAGUUUACUAGUAGUCGCAAG [Fam3.1 aminoacylation ribozyme variant]	1.53	1.14	1.44	1.48	1.29	1.29
AAGUUUAGUAAUAGUCGCAAG [Fam3.1 aminoacylation ribozyme variant]	1.75	1.55	1.85	3.24	1.71	1.23
AAGUUUCCUAAUACUCGCAAG [Fam3.1 aminoacylation ribozyme variant]	1	0.889	0.862	0.584	0.891	0.555
AAGUUUCCUAAUAGUAGCAAG [Fam3.1 aminoacylation ribozyme variant]	1.17	1.05	1.28	1.11	1.12	0.808
AAGUUUCCUAAUAGUCGAAAG [Fam3.1 aminoacylation ribozyme variant]	1.1	1.14	1.45	2.75	1.44	1.76
AAGUUUCCUAAUAGUCGCGAG [Fam3.1 aminoacylation ribozyme variant]	2.04	2.48	2.47	3.66	2.26	2.04
AAGUUUCCUAAUAUUCGCAAG [Fam3.1 aminoacylation ribozyme variant]	0.987	0.841	0.935	0.549	0.935	0.649
AAGUUUCCUAGUAGUCGCAAG [Fam3.1 aminoacylation ribozyme variant]	1.2	1.44	1.12	1.27	1.06	0.668
AAGUUUCCUAUUAGUCGCAAG [Fam3.1 aminoacylation ribozyme variant]	1.24	1.32	1.29	1.87	1.22	1.35
